Assay results published in the supplement of paper PMC10201428.
± gives the standard deviation of the averaged measurements.

Legend:
[1] = tested on: VchCAST RNA-guided transposition machinery (E. coli BL21(DE3) host, lacZ target); experiment: relative integration efficiency (T-RL orientation) vs wild-type transposon end (log2 (normalized fold change)); transposon end mutated: right end (5 bp flank + 75 bp right end); higher = more efficient transposition
Method in brief: (§1)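 Barcode abundances in input plasmids and in genomic integration junctions were obtained by PCR amplification and Illumina sequencing. These came from E. coli BL21(DE3) co-transformed with a T7-driven effector plasmid and a pUC57 donor carrying 1549 left-end or 1849 right-end transposon variants, then plated with 0.1 mM IPTG at 37°C for 18 h. Relative integration efficiency is the output/input fold change, normalised to reference barcodes and log-transformed.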

[2] = tested on: VchCAST RNA-guided transposition machinery (E. coli BL21(DE3) host, lacZ target); experiment: relative integration efficiency (T-LR orientation) vs wild-type transposon end (log2 (normalized fold change)); transposon end mutated: right end (5 bp flank + 75 bp right end); higher = more efficient transposition
Method in brief: as §1

Row | Sequence | relative integration efficiency (log2) [1] | relative integration efficiency (log2) [2]
1 | ACATTTGTTGATACAACCATATATTGATATCTCCAACCATATATTGATATCTCTCACAACCATAAAATGATAATTACTCTGATCATAGTCAGACCAACATTGCTACGACCCGTATTCGCACCGACAC | -0.562 ± 0.043 | -0.08 ± 0.5
2 | ACATTTGTTGATACAACCATATATTGATATCTCCAACCATATATTGATATCTCTCACAACCATAAAGTGATATTTACTCTGATCATAGTCAGACCAACATTGCTACGACCCGTATTCGCACCGACAC | -0.452 ± 0.1 | 0.0811 ± 0.2
3 | ACATTTGTTGATACAACCATATATTGATATCTCCAACCATATATTGATATCTCTCACAACCATAAGTTGATATTTTCTCTGATCATAGTCAGACCAACATTGCTACGACCCGTATTCGCACCGACAC | -0.571 ± 0.19 | -0.0341 ± 0.43
4 | ACATTTGTTGATACAACCATATATTGATATCTCCAACCATATATTGATATCTCTCACAACCATATATTGATATCTCCTCTGATCATAGTCAGACCAACATTGCTACGACCCGTATTCGCACCGACAC | -0.859 ± 0.14 | -0.402 ± 0.094
5 | ACATTTGTTGATACAACCATATATTGATATCTCCAACCATATATTGATATCTCTCACACCCATAAATTGATAATTACTCTGATCATAGTCAGACCAACATTGCTACGACCCGTATTCGCACCGACAC | -0.357 ± 0.067 | 0.23 ± 0.045
6 | ACATTTGTTGATACAACCATATATTGATATCTCCAACCATATATTGATATCTCTCACACCCATAAATTGATATTGCCTCTGATCATAGTCAGACCAACATTGCTACGACCCGTATTCGCACCGACAC | -0.682 ± 0.15 | -0.162 ± 0.005
7 | ACATTTGTTGATACAACCATATATTGATATCTCCAACCATATATTGATATCTCTCAGTGGGTATTTAACTATAACGCTCTGATCATAGTCAGACCAACATTGCTACGACCCGTATTCGCACCGACAC | -1.48 ± 0.31 | 2.41 ± 0.14
8 | ACATTTGTTGATACAACCATATATTGATATCTCCACCCATAAATTGATAATTATCACAACCATAAAATGATAATTACTCTGATCATAGTCAGACCAACATTGCTACGACCCGTATTCGCACCGACAC | -0.253 ± 0.0069 | -0.483 ± 0.35
9 | ACATTTGTTGATACAACCATATATTGATATCTCCACCCATAAATTGATAATTATCACAACCATAAAGTGATATTTACTCTGATCATAGTCAGACCAACATTGCTACGACCCGTATTCGCACCGACAC | -0.345 ± 0.0079 | -0.378 ± 0.45
10 | ACATTTGTTGATACAACCATATATTGATATCTCCACCCATAAATTGATAATTATCACAACCATAAGTTGATATTTTCTCTGATCATAGTCAGACCAACATTGCTACGACCCGTATTCGCACCGACAC | -0.316 ± 0.1 | 0.056 ± 0.33
11 | ACATTTGTTGATACAACCATATATTGATATCTCCACCCATAAATTGATAATTATCACAACCATATATTGATATCTCCTCTGATCATAGTCAGACCAACATTGCTACGACCCGTATTCGCACCGACAC | -0.13 ± 0.1 | -0.00761 ± 0.26
12 | ACATTTGTTGATACAACCATATATTGATATCTCCACCCATAAATTGATAATTATCACACCCATAAATTGATAATTACTCTGATCATAGTCAGACCAACATTGCTACGACCCGTATTCGCACCGACAC | -0.315 ± 0.0034 | -0.06 ± 0.4
13 | ACATTTGTTGATACAACCATATATTGATATCTCCACCCATAAATTGATAATTATCACACCCATAAATTGATATTGCCTCTGATCATAGTCAGACCAACATTGCTACGACCCGTATTCGCACCGACAC | -0.348 ± 0.03 | -0.187 ± 0.16
14 | ACATTTGTTGATACAACCATATATTGATATCTCCACCCATAAATTGATAATTATCAGTGGGTATTTAACTATAACGCTCTGATCATAGTCAGACCAACATTGCTACGACCCGTATTCGCACCGACAC | -1.01 ± 0.15 | 2.29 ± 0.021
15 | ACATTTGTTGATACAACCATATATTGATATCTCCACCCATAAATTGATATTGCTCACAACCATAAAATGATAATTACTCTGATCATAGTCAGACCAACATTGCTACGACCCGTATTCGCACCGACAC | -0.537 ± 0.12 | -0.381 ± 0.46
16 | ACATTTGTTGATACAACCATATATTGATATCTCCACCCATAAATTGATATTGCTCACAACCATAAAGTGATATTTACTCTGATCATAGTCAGACCAACATTGCTACGACCCGTATTCGCACCGACAC | -0.6 ± 0.069 | -0.202 ± 0.54

Row | Sequence | relative integration efficiency (log2) [1] | relative integration efficiency (log2) [2]
17 | ACATTTGTTGATACAACCATATATTGATATCTCCACCCATAAATTGATATTGCTCACAACCATAAGTTGATATTTTCTCTGATCATAGTCAGACCAACATTGCTACGACCCGTATTCGCACCGACAC | -0.57247 ± 9.5e-05 | 0.281 ± 0.01
18 | ACATTTGTTGATACAACCATATATTGATATCTCCACCCATAAATTGATATTGCTCACAACCATATATTGATATCTCCTCTGATCATAGTCAGACCAACATTGCTACGACCCGTATTCGCACCGACAC | -0.713 ± 0.056 | 0.439 ± 0.28
19 | ACATTTGTTGATACAACCATATATTGATATCTCCACCCATAAATTGATATTGCTCACACCCATAAATTGATAATTACTCTGATCATAGTCAGACCAACATTGCTACGACCCGTATTCGCACCGACAC | -0.617 ± 0.12 | 0.429 ± 0.13
20 | ACATTTGTTGATACAACCATATATTGATATCTCCACCCATAAATTGATATTGCTCACACCCATAAATTGATATTGCCTCTGATCATAGTCAGACCAACATTGCTACGACCCGTATTCGCACCGACAC | -0.524 ± 0.027 | 0.466 ± 0.081
21 | ACATTTGTTGATACAACCATATATTGATATCTCCACCCATAAATTGATATTGCTCAGTGGGTATTTAACTATAACGCTCTGATCATAGTCAGACCAACATTGCTACGACCCGTATTCGCACCGACAC | -1.2 ± 0.17 | 2.32 ± 0.041
22 | ACATTTGTTGATACAACCATATTATGATAATTACACCCATAAATTGATAATTATCACACCCATAAATTGATATTGCCTCTGATCATAGTCAGACCAACATTGCTACGACCCGTATTCGCACCGACAC | -0.2975 ± 0.0027 | -0.476 ± 0.63
23 | ACATTTGTTGATACAACCATATTATGATAATTACACCCATATTTTGATAATTATCACACCCATATTTTGATATTGCCTCTGATCATAGTCAGACCAACATTGCTACGACCCGTATTCGCACCGACAC | -0.5763 ± 0.0022 | -0.471 ± 0.23
24 | ACATTTGTTGATACAACCATATTTAGATAATTACACCCATAAATTGATAATTATCACACCCATAAATTGATATTGCCTCTGATCATAGTCAGACCAACATTGCTACGACCCGTATTCGCACCGACAC | -0.585 ± 0.14 | -0.623 ± 0.22
25 | ACATTTGTTGATACAACCATATTTAGATAATTACACCCATATTAAGATAATTATCACACCCATATTAAGATATTGCCTCTGATCATAGTCAGACCAACATTGCTACGACCCGTATTCGCACCGACAC | -2.27 ± 0.31 | -1.1 ± 0.36
26 | ACATTTGTTGATACAACCATATTTTGATAATTACACCCATATTATGATAATTATCACACCCATATTATGATATTGCCTCTGATCATAGTCAGACCAACATTGCTACGACCCGTATTCGCACCGACAC | -0.721 ± 0.17 | -0.241 ± 0.0091
27 | ACATTTGTTGATACAACCATCAAATGATAATTACACCCATACATTGATAATTATCACACCCAATTTAACTATAACGCTCTGATCATAGTCAGACCAACATTGCTACGACCCGTATTCGCACCGACAC | -2.9 ± 0.42 | -0.0308 ± 0.27
28 | ACATTTGTTGATACAACCATCAAATGATAATTACACCCATCAATTGATAATTATCACACCCATCAATTGATATTGCCTCTGATCATAGTCAGACCAACATTGCTACGACCCGTATTCGCACCGACAC | -1.73 ± 0.26 | -1.14 ± 0.11
29 | ACATTTGTTGATACAACCATCAAATGATAATTACACCCCTAAATTGATAATTATCACACCCAATTTAACTATAACGCTCTGATCATAGTCAGACCAACATTGCTACGACCCGTATTCGCACCGACAC | -3.41 ± 0.3 | -0.622 ± 0.093
30 | ACATTTGTTGATACAACCATCAAATGATAATTACACCCCTACATTGATAATTATCACACCCAATTTAACTATAACGCTCTGATCATAGTCAGACCAACATTGCTACGACCCGTATTCGCACCGACAC | -4.12 ± 0.053 | -1.57 ± 0.21
31 | ACATTTGTTGATACAACCATCAAATGATAATTCCACCCATAAATTGATAATTATCACACCCAATTTAACTATAACGCTCTGATCATAGTCAGACCAACATTGCTACGACCCGTATTCGCACCGACAC | -1.53 ± 0.19 | 1.44 ± 0.11
32 | ACATTTGTTGATACAACCATCAAATGATAATTCCACCCATACATTGATAATTATCACACCCAATTTAACTATAACGCTCTGATCATAGTCAGACCAACATTGCTACGACCCGTATTCGCACCGACAC | -3.05 ± 0.042 | -0.154 ± 0.093
